Test results taken from article PMC4500542 (Cell reports, 2015).
Read-outs that look alike come from different tables or passages of the source.

B1: MBP-EBOV NP 19-389 (domain or fragment)
chain: MDYHKILTAGLSVQQGIVRQRVIPVYQVNNLEEICQLIIQAFEAGVDFQESADSFLLMLCLHHAYQGDYKLFLESGAVKYLEGHGFRFEVKKRDGVKRLEELLPAVSSGKNIKRTLAAMPEEETTEANAGQFLSFASLFLPKLVVGEKACLEKVQRQIQVHAEQGLIQYPTAWQSVGHMMVIFRLMRTNFLIKFLLIHQGMHMVAGHDANDAVISNSVAQARFSGLLIVKTVLDHILQKTERGVRLHPLARTAKVKNEVNSFKAALSSLAKHGEYAPFARLLNLSGVNNLEHGLFPQLSAIALGVATAHGSTLAGVNVGEQYQQLREAATEAEKQLQQYAESRELDHLGLDDQEKKILMNFHQKKNEISFQ
B2: MBP-EBOV NP 1-450 (oligomeric, RNA-bound) (domain or fragment)
chain: MDSRPQKIWMAPSLTESDMDYHKILTAGLSVQQGIVRQRVIPVYQVNNLEEICQLIIQAFEAGVDFQESADSFLLMLCLHHAYQGDYKLFLESGAVKYLEGHGFRFEVKKRDGVKRLEELLPAVSSGKNIKRTLAAMPEEETTEANAGQFLSFASLFLPKLVVGEKACLEKVQRQIQVHAEQGLIQYPTAWQSVGHMMVIFRLMRTNFLIKFLLIHQGMHMVAGHDANDAVISNSVAQARFSGLLIVKTVLDHILQKTERGVRLHPLARTAKVKNEVNSFKAALSSLAKHGEYAPFARLLNLSGVNNLEHGLFPQLSAIALGVATAHGSTLAGVNVGEQYQQLREAATEAEKQLQQYAESRELDHLGLDDQEKKILMNFHQKKNEISFQQTNAMVTLRKERLAKLTEAITAASLPKTSGHYDDDDDIPFPGPINDDDNPGHQDDDPTDSQ
B3: EBOV NP 1-450 (oligomeric, RNA-bound, purified directly from E. coli) (domain or fragment)
chain: B2 chain
B4: EBOV NP 1-450 released by TEV protease from the cleavable fusion (RNA-free) (domain or fragment)
chain: B2 chain
B5: EBOV NP 1-450 (co-expressed with His-VP35 1-80) (domain or fragment)
chain: B2 chain
B6: MBP-EBOV NP 1-739 (oligomeric, RNA-bound) (natural protein)
chain: MDSRPQKIWMAPSLTESDMDYHKILTAGLSVQQGIVRQRVIPVYQVNNLEEICQLIIQAFEAGVDFQESADSFLLMLCLHHAYQGDYKLFLESGAVKYLEGHGFRFEVKKRDGVKRLEELLPAVSSGKNIKRTLAAMPEEETTEANAGQFLSFASLFLPKLVVGEKACLEKVQRQIQVHAEQGLIQYPTAWQSVGHMMVIFRLMRTNFLIKFLLIHQGMHMVAGHDANDAVISNSVAQARFSGLLIVKTVLDHILQKTERGVRLHPLARTAKVKNEVNSFKAALSSLAKHGEYAPFARLLNLSGVNNLEHGLFPQLSAIALGVATAHGSTLAGVNVGEQYQQLREAATEAEKQLQQYAESRELDHLGLDDQEKKILMNFHQKKNEISFQQTNAMVTLRKERLAKLTEAITAASLPKTSGHYDDDDDIPFPGPINDDDNPGHQDDDPTDSQDTTIPDVVVDPDDGSYGEYQSYSENGMNAPDDLVLFDLDEDDEDTKPVPNRSTKGGQQKNSQKGQHIEGRQTQSRPIQNVPGPHRTIHHASAPLTDNDRRNEPSGSTSPRMLTPINEEADPLDDADDETSSLPPLESDDEEQDRDGTSNRTPTVAPPAPVYRDHSEKKELPQDEQQDQDHTQEARNQDSDNTQSEHSFEEMYRHILRSQGPFDAVLYYHMMKDEPVVFSTSDGKEYTYPDSLEEEYPPWLTEKEAMNEENRFVTLDGQQFYWPVMNHKNKFMAILQHHQ

Assays:
[1] = target: EBOV NP° core domain (NP 34-367) (Ebola virus (EBOV, formerly Zaire ebolavirus)) (UniProt P18272); test: ITC
[2] = target: the molecule itself; test: SEC-MALS
[3] = target: the molecule itself; test: SEC-MALS; remark: listed apart in the source

Molecule	binding result [2]	also measured
EBOV VP35 1-80 peptide (purified, wild type) (from UniProt Q05127 1-80) (domain or fragment)	–	Kd [1]: 1.1 nM
B1	binds	–
B2	binds	–
B3	binds	–
B4	binds	–
B5	binds	–
B6	–	binding result [3]: binds
